A short description of this data set: yeast display, Sf9 membrane polyspecificity reagent, FACS + sequencing; frameworks hold sequencing errors. An outline of the steps: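 Using colony PCR, genes from sorted yeast display clones were amplified, then sequenced on MiSeq at 2 × 250 and filtered by CDR length. The clones had been stained with 10% biotinylated, detergent-solubilized Sf9 membrane reagent for 1 hour at 4 °C and sorted by FACS into low and high (top ~1%) gates on anti-HA and streptavidin fluorescence. Polyreactivity labels come from the gate of origin.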
For the sequence “QVQLVESGGGLVQAGGSLRLSCAASGIIFYNKAMGWYRQAPGKERELVAAITWSDGSTYYADSVKGRFTISRDNAKTTVYLQMNSMKPEDTAVYYCARRSGDERRDGDYWGQGTQVTVSS”, the “polyreactivity (PSR sort gate)” value is on record as “low polyreactivity”. For the sequence “QVQLVESGGGLVQAGGSLRLSCAASGIIFYPYAMGWYRQAPGKESELVADITSGGGTNYAYSVKGRITISRDNAKNTVYLQMNSLKQEDTAVYYCAAEVRGYHWGTYYEFYYWGQGTQVTVSS”, the “polyreactivity (PSR sort gate)” value is “low polyreactivity”. As to “QVQLVESGGGLVQAGGSLRLSCAASGIIFYRNAMGWYRQAPGKERELVAGITSGGSTYYADSVKGRFTISRDNAKNTVYLQMNSLIPEDTAVYYCAAYYRASQRYLQYGYWGQGTQVNVSS”, the “polyreactivity (PSR sort gate)” value is listed as “high polyreactivity”.

Consider “QVQLVESGGGLVQAGGSLRLSCAASGIIFYRYALGWYRQAPRTERELVAAISSSGTNTYYADSVKGRFTISRDNAKNTVYLQMNSLKPEDTAVYYCNADTLADRSTYDYWGQGTQVNVSS”, for which the “polyreactivity (PSR sort gate)” value is “low polyreactivity”. For the sequence “QVQLVESGGGLVQAGGSLRLSCAASGIIFYRYAMGWYRQAPGKERELVATIRRSDGSTYYADSVKGRFTISRDNAKNTVYLQMKSLKPVDTAVYYCAARRPYSSGYDYWGQGSQVTVSS”, the “polyreactivity (PSR sort gate)” value is “high polyreactivity”. For “QVQLVESGGGLVQAGGSLRLSCAASGIIFYRYAMVWYRQAPGKERELVAAITWSGVSTSYADSVKGRFTISRDNAMNTVYLQMTSLKPEDTAVYYCNKDQGTLYGDMDSWGQGTQVTVSS”, the “polyreactivity (PSR sort gate)” value is “low polyreactivity”.

Consider “QVQLVESGGGLVQAGGSLRLSCAASGIIFYRYVMGWYRQAHGKERELVAAINNDGASTHYADSVKGRFTISRDNAKNTVYLQMNSLKPEDTAVYYCATRDSLYYRYWSNNYWGQGTQVTVSS”, for which the “polyreactivity (PSR sort gate)” value is on record as “high polyreactivity”. The same measure for “QVQLVESGGGLVQAGGSLRLSCAASGIIFYTYAMGWYRQAPGKEREFVAGIRWSGSSTYYADSVKGRFTISRDNAKNTVYLQMNCLNPEDTAVYYCATGQPYGPLFSMGYGYWGQVTQVTVSS”: “high polyreactivity”; for “QVQLVESGGGLVQAGGSLRLSCAASGIIFYWNAMGWYRQAPGKERELVAGITRGGSTYYADSVKGRFTISRDNATNTVYLLMNSLKPEDTAVYYCAKRQASRRVSYSRYDYWGQGTQVTVSS”: “high polyreactivity”; for “QVQLVESGGGLVQAGGSLRLSCAASGIIFYWYAMGWYRQAPGKERELVAGIDSDGSTNYADSVKGRFTISRDNAKNTVYLQMNSLKPEDTAVYYCAAVQGYRFYESYYWGQGTQVTVSS”: “low polyreactivity”. In the case of “QVQLVESGGGLVQAGGSLRLSCAASGIIFYYNAMGWYRQAPGKERELVAAINDSGNTYYADSVKGRFTISRDNAKNTVYFQMNSLKPEDTAVYYCAADVWKYWGYDYWGQGTQVTVSS” it was “low polyreactivity”; in that of “QVQLVESGGGLVQAGGSLRLSCAASGIIFYYYAMGSDRQAPGKERELVAAITSSGVRTYYADSVKGRFTISRDNAKNTVYLQMNSLKPEDTAVYYCAASSVLYSRSYDYWGQGTQVTVSS”, “high polyreactivity”. In the case of “QVQLVESGGGLVQAGGSLRLSCAASGIIFYYYAMGWYRQAPGTERELVARISLSGGSTYYADSVKGRFTISRDNAKNTVYLQMNSLKPEDTAVYYCATRSWYKRQTYDYWGQGTQVTVSS”, the “polyreactivity (PSR sort gate)” value is listed as “high polyreactivity”.

Take “QVQLVESGGGLVQAGGSLRLSCAASGIIFYYYAMGWYRQATGKERELVAAITRSGGSTYYADSVKGRFTISRDNAKNTVYLQMNSLKPEDTAVYYCAAARLPYYVGRYYYWGQGTQVTVSS”: the “polyreactivity (PSR sort gate)” value was “high polyreactivity”. Regarding “QVQLVESGGGLVQAGGSLRLSCAASGIIIDSNAMGWYRQAPGKERELVAAITSGGSTKYADSVKGRFTISRDNAKNTVYLQMNSLKPEDTAVYYCNADFRPADQWSYFYEMDSWGQGTQVTVSS”, the “polyreactivity (PSR sort gate)” value is listed as “low polyreactivity”. “QVQLVESGGGLVQAGGSLRLSCAASGIIIDYNAMGWYRQAHGKERELVAAISSRGGSTYYADSVKGRFTISRDNAKNTVYLQMNSLKPEDTAVYYCAKVIGKYVNSYYWGQGTQVTVSS”: the “polyreactivity (PSR sort gate)” value is given as “low polyreactivity”. The same measure for “QVQLVESGGGLVQAGGSLRLSCAASGIIIKRNAMGWYRQAPGKEMELVAAISRSGGSTYYSDSVKGRFTISRDIAMNTVYLQMNSLKAEDTAVYYCAADWSEYPYDYWGQGTQVTVSS”: “low polyreactivity”; for “QVQLVESGGGLVQAGGSLRLSCAASGIIIPVYAMGWYRQAPGKERELVAAISSGGSTYYADSVKGRFTISRDNAKNTVYLQMNSLKPEDTAVFYCAAGYQKGYADPGFDYWGQGTQVTVSS”: “high polyreactivity”.

As to “QVQLVESGGGLVQAGGSLRLSCAASGIIIQINAMGWYRPAPGKERELVAAITIDGTTNYADSVKGRFTISRDNAKNTVYLQMNILKPEDTAVYYCARRRSVYVWEPYQYDYWGQGTQVTVSS”, the “polyreactivity (PSR sort gate)” value is recorded as “low polyreactivity”.

“QVQLVESGGGLVQAGGSLRLSCAASGIIIYRYVMGWYRPAPGKERELVASISSSGGRTHYADSVKGRFTISRDNAKNTVYLQMNSLKPEDTAVYYCAAVQRSSFYRRYDYWGQGTQVTVSS”: the “polyreactivity (PSR sort gate)” value is “high polyreactivity”.

For “QVQLVESGGGLVQAGGSLRLSCAASGIILGSNAKGWYRQAPGKERELVAGITSGGGTYYADSVKGRFTISRDNAKKTVYLQMNSLKPEDTAVYYCAKLYFHYYRYGYWGQGTQVTVSS”, the “polyreactivity (PSR sort gate)” value is reported as “low polyreactivity”.

For the sequence “QVQLVESGGGLVQAGGSLRLSCAASGIILHYYAMGWYRQAPGKQRELVAAISARGGRTYYADSVKGRFTISRDNAKNTVYLQMNSLKPEDTAVYYCAAVTVASPTRMDYWGQGTLVTVSS”, the “polyreactivity (PSR sort gate)” value is “high polyreactivity”. In the case of “QVQLVESGGGLVQAGGSLRLSCAASGIILIQNSMGWSRHAPGKERELVAAISTRGGRTYYADSVKGRFTISRDNAKNTVYLQMNSLKPEDTAVYYCAAYRTTPYRDYKMDYWGQGTQVTVSS” it was “high polyreactivity”; in that of “QVQLVESGGGLVQAGGSLRLSCAASGIILPYYAMGWYRQAPGKERELGASISYDGTSTYYADSVKGRFTISRDNAKNTVYLQMNSLKPEDTAVYYCAAVQWWPRASYSMDYWGQGTQVTASS”, “low polyreactivity”. “QVQLVESGGGLVQAGGSLRLSCAASGIILRRYAMGWYRQPPGKERELVAAISSRGGSTYYADSVKGRFTISRDNAKNTVYLQMNSLKPEDTAVYYCAAEDYWYDFDYWGQGTQVTVSS”: the “polyreactivity (PSR sort gate)” value is on record as “high polyreactivity”. In the case of “QVQLVESGGGLVQAGGSLRLSCAASGIILRYYVMGWYRQAPGKERELVAAITSRGGSTYYADSVKGRFTISRDNAKITVYLQMNSLKPEDTAVYYCAAGYRNVNTFDYWGQGTQVTVSS”, the “polyreactivity (PSR sort gate)” value was “high polyreactivity”.

Turning to “QVQLVESGGGLVQAGGSLRLSCAASGIILSPYTMGWYIQAPGKERELVAGISRSGGTTYYADSVKGRFTISRDNAKNTVYLQMNSLKPEDTAVYYCAAGLIYGYSGYDSWGQGTQVTVSS”, the “polyreactivity (PSR sort gate)” value is recorded as “low polyreactivity”. With “QVQLVESGGGLVQAGGSLRLSCAASGIIMPSYVMGWYRQAPGKERELVAAITRSGGNTYYADSVKGRFTISRDNAKNTVYLQMNSLKPEDTAVYYCAARAPVRRYRAYEFDYWGQGTQVTVSS”, the “polyreactivity (PSR sort gate)” value is reported as “high polyreactivity”. As for “QVQLVESGGGLVQAGGSLRLSCAASGIIQVYNTMGWYRQAPGKERELVAAINYSGGSTNYADSVKGRFTISRDNAKNTVYFQMNSLKPEDTAVYYCNARYGGFNVPYLRYEHWGQGTQVTVSS”, the “polyreactivity (PSR sort gate)” value is “low polyreactivity”. Turning to “QVQLVESGGGLVQAGGSLRLSCAASGIISGDYAMGWYRQAPGKERELVARITSGDSTNYADSVKGRFTISRDNAKNTVYLQMNSLKPEDTAVYYCAADRVWAYWTYGYWGQGTQVTVSS”, the “polyreactivity (PSR sort gate)” value is recorded as “low polyreactivity”. On to “QVQLVESGGGLVQAGGSLRLSCAASGIIYGNVMGWYRQAPGKESELVAAITGSGGSTYYADSVKGRFTISRDNAKNTVYLQMNSLKPEDTAVYYCAADLALYNTLYLTLPDYYWGEGTQVTVSS”, for which the “polyreactivity (PSR sort gate)” value is recorded as “low polyreactivity”. With “QVQLVESGGGLVQAGGSLRLSCAASGIIYYGYAMGWYRQAPGKERELVAAISRSGGSTYYADSVKGRFTISRDNAKNTVYLQMNSLKPEDTAVYYCAASGVTYDYWGQGTQVTVSS”, the “polyreactivity (PSR sort gate)” value was “high polyreactivity”. The same measure for “QVQLVESGGGLVQAGGSLRLSCAASGIIYYGYVMGWYRQAPGKERELVATITSSGGSKYYADSVKGRFTISRDNAKNTVYLQMNSLKPEDTAVYYCAADYYYGAWVRHDYWGQCTQVTVSS”: “low polyreactivity”; for “QVQLVESGGGLVQAGGSLRLSCAASGILLFNAMGWYRQAHGKERELVAAINSGGSTNYADSVKGRFPISRDNAKNTGYLQMNSLKPEDTAVYYCAKDTPFTLRVWAEGGMDYWGQGTQVTVSS”: “low polyreactivity”; for “QVQLVESGGGLVQAGGSLRLSCAASGIMFSSYAMLWYRQAPGKERELFAAISWSGGSTYYADSVKLRFTISRDNAKNTVYLQMNSLKPEDTAVYYCAAKSHWYKRGYWGQGTQVTVSS”: “low polyreactivity”. With “QVQLVESGGGLVQAGGSLRLSCAASGINFESYVMGWYRQAPGKERELVARISYSGGSTYYADSVKGRFTISRDNAKNTVYLQMNSLIPEDTAVYYCNARYLFSGRYSRRMEYWGQGTQVTVSS”, the “polyreactivity (PSR sort gate)” value is reported as “high polyreactivity”.

On to “QVQLVESGGGLVQAGGSLRLSCAASGINFFVYDMGWYRQAPGKERELVAAITWSGDSTYYADSVKGRFTISRDNAKNTVYLQINSLKPVDSAVYYCAAQFDVYYSRQPYDYNRSGYWGQGTQVTVSS”, for which the “polyreactivity (PSR sort gate)” value was “low polyreactivity”. With “QVQLVESGGGLVQAGGSLRLSCAASGINFGQNAMGWYRQAPGKERELVAAITISVGSTYYADSVKGRFTISRDNAKNTVYLQMNSLKPEDTAVYYCAARRVTWKVIARGYRYGYWGQGTQVTVTS”, the “polyreactivity (PSR sort gate)” value is listed as “low polyreactivity”. With “QVQLVESGGGLVQAGGSLRLSCAASGINFGYYTMGWYRQAPGKDREFVAAITANGGRTYYADSVKGRFTLSRDNAKNTVYLKMNSLKPEDTAVYYCNARTYTYRGSFDYWVQGTQVTVSS”, the “polyreactivity (PSR sort gate)” value is on record as “high polyreactivity”. Turning to “QVQLVESGGGLVQAGGSLRLSCAASGINFNYYVMGWYRQAPGKERELVAAISRSGGRTRYADSVKGRFTISRDNAKNTVYLQMNSLKPEDTAVYYCAAVGSVNYDADFDYWGQGTQVTVSS”, the “polyreactivity (PSR sort gate)” value is “high polyreactivity”. Turning to “QVQLVESGGGLVQAGGSLRLSCAASGINFRGYAMGWYRQAPGKERELVASITNTDSTYYADSVKGRFTISRDNAKNTVYLQMNSLKPEDTAVYYCAARRGRKYGYWGQGTQVTVSS”, the “polyreactivity (PSR sort gate)” value is “high polyreactivity”.

The values are drawn from the nanobody polyreactivity screen of Harvey et al. (2022).
